We go through one substance from US20260176331A1.

A value given as a limit tells only on which side of the number the result lay.

The target of assay [1] is Hu FcgRIIA_R167 (human) (UniProt P12318). Put plainly: kinetics, antibody captured on protein A/G chip, FcγR injected as analyte.
Assay [2] addresses Hu FcγRIIβ (human) (UniProt P31994). Described as above.
The target of assay [3] is human FcγRIIβ on CHOK1 cells (human) (UniProt P31994). Briefly: ratio of flow cytometry EC50s, reference FcγRIIα (R131) on CHOK1 cells.

Sequence of UniProt P12318 (P12318 36-218 H167R limits assumed): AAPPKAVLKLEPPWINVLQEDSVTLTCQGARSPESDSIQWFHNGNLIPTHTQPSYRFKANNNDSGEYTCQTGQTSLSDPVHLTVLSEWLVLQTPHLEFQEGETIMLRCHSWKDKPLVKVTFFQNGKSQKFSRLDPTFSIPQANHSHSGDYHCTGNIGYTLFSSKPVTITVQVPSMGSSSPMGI

In assay [1], IgG1 P238D (antibody) had a Fold (KD(IgG WT)/KD(variants)) of less than 0.3 fold and a Kd greater than 5 µM. Also, the Fold (KD(IgG WT)/KD(variants)) in assay [2] amounted to 3.18 fold. The IIa/IIb (ratio of EC50) in assay [3] was 77.8.
